Experimental data taken from US20140087995A1 (published 2014).
One block for each binder: values may come before it. Numbered stars: 1 amine (or outer) side, 2 acyl side, 3 side chain; on linkers, the order of the positions; unused ones are H or OH. Bridge positions count the residues as written; N and C are the ends. Side chains are listed from the residue outwards. Ends that are not written are not given here. * marks the point of attachment. C20 diacid = O=C(O)CCCCCCCCCCCCCCCCCCC(=O)*; γGlu = O=C(O)[C@H](CCC(=O)[*:2])N[*:1]; AEEA = NCCOCCOCC(=O)O

Key:
[1] = molecular target: T1, human calcitonin receptor (human, UniProt P30988 25-474); assay: SPA competition with 125I-calcitonin on membranes of BHK cells with human calcitonin receptor (Assay VII)
T1 construct: whole, on cells; Assay used cell membranes, not intact cells; also called hCTR; hCT
T1 sequence (looked up): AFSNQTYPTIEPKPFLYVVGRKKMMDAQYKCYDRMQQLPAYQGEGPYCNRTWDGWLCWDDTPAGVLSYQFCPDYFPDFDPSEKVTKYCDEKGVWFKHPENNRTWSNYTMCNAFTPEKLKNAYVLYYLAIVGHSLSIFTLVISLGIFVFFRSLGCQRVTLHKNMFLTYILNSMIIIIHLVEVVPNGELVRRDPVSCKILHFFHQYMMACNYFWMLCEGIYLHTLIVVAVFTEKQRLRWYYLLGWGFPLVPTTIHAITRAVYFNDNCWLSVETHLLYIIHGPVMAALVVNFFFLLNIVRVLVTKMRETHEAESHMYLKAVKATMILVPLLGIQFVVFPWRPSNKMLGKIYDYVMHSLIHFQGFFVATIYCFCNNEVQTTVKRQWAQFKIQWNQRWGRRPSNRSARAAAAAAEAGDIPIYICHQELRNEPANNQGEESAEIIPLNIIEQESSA
How it was run: (§1)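 BHK hCTR membranes 35 ng/μL + SPA beads 0.05 mg/well; buffer 50 mM Hepes pH 7.4, 1 mM CaCl2, 5 mM MgCl₂, 0.1% OA, 0.02% Tween20. 120 min, 25° C., shaking. Scintillation count; IC50 by one-site binding competition.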

[2] = molecular target: T1, human calcitonin receptor; assay: ratio IC50 hCTR / IC50 hAmylin-R (reference: human amylin receptor), SPA competition assays
How it was run: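 Competition binding by SPA with cell membranes (35 ng/μL) and SPA beads in 50 mM Hepes pH 7.4 with 1 mM CaCl2, 5 mM MgCl2, 0.1% OA and 0.02% Tween20. Incubated 120 min at 25 °C with shaking, then counted.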

[3] = molecular target: T2, human amylin receptor (amylin 3(a) receptor: human calcitonin receptor with RAMP-3) (human, UniProt P30988 25-474; O60896 24-148); assay: SPA competition with 125I-rat amylin on membranes of BHK cells with human calcitonin receptor and RAMP-3 (Assay V)
T2 construct: whole, on cells; Assay used cell membranes of the Amylin 3(a)/CRE-luc BHK cells, not intact cells; also called hAmylin-R; hAmylinR
T2 sequence (looked up) 1: T1 sequence (looked up)
T2 sequence (looked up) 2: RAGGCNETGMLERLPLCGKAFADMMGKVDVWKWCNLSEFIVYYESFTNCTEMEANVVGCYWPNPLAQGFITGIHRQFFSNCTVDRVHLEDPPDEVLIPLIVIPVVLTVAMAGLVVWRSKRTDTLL
How it was run: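 SPA beads with BHK Amylin 3(a)/CRE-luc cell membranes (35 ng/μL final) in 50 mM Hepes pH 7.4, 1 mM CaCl2, 5 mM MgCl₂, 0.1% OA, 0.02% Tween20.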

[4] = molecular target: T3, human calcitonin receptor (human, UniProt P30988 25-474); assay: SPA radioligand competition (125I-calcitonin), membranes of BHK cells with human calcitonin receptor
T3 construct: whole, on cells; Assay used cell membranes of the transfected BHK cells; also called hCTR; hCT
T3 sequence (looked up): T1 sequence (looked up)
How it was run: as §1

B1: N{-1}-[(4S)-4-carboxy-4-(19-carboxynonadecanoylamino)butanoyl]-Gly[Arg1,His14,Arg17,Pro21,Pro27]-h-amylin (peptide)
peptide: {C20 diacid-γGlu}-GRCNTATCATQRLAHFLRHSSPNFGAIPSSTNVGSNTY-NH2
modifications: disulfide 3-8
SMILES: CC[C@H](C)[C@H](NC(=O)[C@H](C)NC(=O)CNC(=O)[C@H](Cc1ccccc1)NC(=O)[C@H](CC(N)=O)NC(=O)[C@@H]1CCCN1C(=O)[C@H](CO)NC(=O)[C@H](CO)NC(=O)[C@H](Cc1c[nH]cn1)NC(=O)[C@H](CCCNC(=N)N)NC(=O)[C@H](CC(C)C)NC(=O)[C@H](Cc1ccccc1)NC(=O)[C@H](Cc1c[nH]cn1)NC(=O)[C@H](C)NC(=O)[C@H](CC(C)C)NC(=O)[C@H](CCCNC(=N)N)NC(=O)[C@H](CCC(N)=O)NC(=O)[C@@H](NC(=O)[C@H](C)NC(=O)[C@@H]1CSSC[C@H](NC(=O)[C@H](CCCNC(=N)N)NC(=O)CNC(=O)CC[C@H](NC(=O)CCCCCCCCCCCCCCCCCCC(=O)O)C(=O)O)C(=O)N[C@@H](CC(N)=O)C(=O)N[C@@H]([C@@H](C)O)C(=O)N[C@@H](C)C(=O)N[C@@H]([C@@H](C)O)C(=O)N1)[C@@H](C)O)C(=O)N1CCC[C@H]1C(=O)N[C@@H](CO)C(=O)N[C@@H](CO)C(=O)N[C@H](C(=O)N[C@@H](CC(N)=O)C(=O)N[C@H](C(=O)NCC(=O)N[C@@H](CO)C(=O)N[C@@H](CC(N)=O)C(=O)N[C@H](C(=O)N[C@@H](Cc1ccc(O)cc1)C(N)=O)[C@@H](C)O)C(C)C)[C@@H](C)O
notes: also called compound 99
IC50 [1]: 35 nM | Ratio hCT/hAmylin binding [2]: 100 | IC50 [3]: 0.348 nM

B3: N^ε1-[2-[2-[2-[[(4S)-4-carboxy-4-(19-carboxynonadecanoylamino)butanoyl]amino]ethoxy]ethoxy]acetyl]-[Arg17,Pro21,Pro27,Pro28,Pro34]-h-amylin (peptide)
peptide: K([AEEA-γGlu-C20 diacid])CNTATCATQRLANFLRHSSPNFGAIPPSTNVGPNTY-NH2
modifications: disulfide 2-7; N-terminus assumed
SMILES: CC[C@H](C)[C@H](NC(=O)[C@H](C)NC(=O)CNC(=O)[C@H](Cc1ccccc1)NC(=O)[C@H](CC(N)=O)NC(=O)[C@@H]1CCCN1C(=O)[C@H](CO)NC(=O)[C@H](CO)NC(=O)[C@H](Cc1c[nH]cn1)NC(=O)[C@H](CCCNC(=N)N)NC(=O)[C@H](CC(C)C)NC(=O)[C@H](Cc1ccccc1)NC(=O)[C@H](CC(N)=O)NC(=O)[C@H](C)NC(=O)[C@H](CC(C)C)NC(=O)[C@H](CCCNC(=N)N)NC(=O)[C@H](CCC(N)=O)NC(=O)[C@@H](NC(=O)[C@H](C)NC(=O)[C@@H]1CSSC[C@H](NC(=O)[C@@H](N)CCCCNC(=O)COCCOCCNC(=O)CC[C@H](NC(=O)CCCCCCCCCCCCCCCCCCC(=O)O)C(=O)O)C(=O)N[C@@H](CC(N)=O)C(=O)N[C@@H]([C@@H](C)O)C(=O)N[C@@H](C)C(=O)N[C@@H]([C@@H](C)O)C(=O)N1)[C@@H](C)O)C(=O)N1CCC[C@H]1C(=O)N1CCC[C@H]1C(=O)N[C@@H](CO)C(=O)N[C@H](C(=O)N[C@@H](CC(N)=O)C(=O)N[C@H](C(=O)NCC(=O)N1CCC[C@H]1C(=O)N[C@@H](CC(N)=O)C(=O)N[C@H](C(=O)N[C@@H](Cc1ccc(O)cc1)C(N)=O)[C@@H](C)O)C(C)C)[C@@H](C)O
notes: Synthetic analogue; also called compound 55
IC50 [4]: 2.17 nM

B6: N^ε1-[2-[2-[2-[[(4S)-4-carboxy-4-(19-carboxynonadecanoylamino)butanoyl]amino]ethoxy]ethoxy]acetyl]-[Arg17,Pro21,Pro27,Pro29,Pro34]-h-amylin (peptide)
peptide: K([AEEA-γGlu-C20 diacid])CNTATCATQRLANFLRHSSPNFGAIPSPTNVGPNTY-NH2
modifications: disulfide 2-7; N-terminus assumed
SMILES: CC[C@H](C)[C@H](NC(=O)[C@H](C)NC(=O)CNC(=O)[C@H](Cc1ccccc1)NC(=O)[C@H](CC(N)=O)NC(=O)[C@@H]1CCCN1C(=O)[C@H](CO)NC(=O)[C@H](CO)NC(=O)[C@H](Cc1c[nH]cn1)NC(=O)[C@H](CCCNC(=N)N)NC(=O)[C@H](CC(C)C)NC(=O)[C@H](Cc1ccccc1)NC(=O)[C@H](CC(N)=O)NC(=O)[C@H](C)NC(=O)[C@H](CC(C)C)NC(=O)[C@H](CCCNC(=N)N)NC(=O)[C@H](CCC(N)=O)NC(=O)[C@@H](NC(=O)[C@H](C)NC(=O)[C@@H]1CSSC[C@H](NC(=O)[C@@H](N)CCCCNC(=O)COCCOCCNC(=O)CC[C@H](NC(=O)CCCCCCCCCCCCCCCCCCC(=O)O)C(=O)O)C(=O)N[C@@H](CC(N)=O)C(=O)N[C@@H]([C@@H](C)O)C(=O)N[C@@H](C)C(=O)N[C@@H]([C@@H](C)O)C(=O)N1)[C@@H](C)O)C(=O)N1CCC[C@H]1C(=O)N[C@@H](CO)C(=O)N1CCC[C@H]1C(=O)N[C@H](C(=O)N[C@@H](CC(N)=O)C(=O)N[C@H](C(=O)NCC(=O)N1CCC[C@H]1C(=O)N[C@@H](CC(N)=O)C(=O)N[C@H](C(=O)N[C@@H](Cc1ccc(O)cc1)C(N)=O)[C@@H](C)O)C(C)C)[C@@H](C)O
notes: Synthetic analogue; also called compound 56
IC50 [4]: 2.09 nM

Continued by falling IC50 [4], values first:

IC50 [4]: 15.3 nM
B4: N^ε1-[2-[2-[2-[[(4S)-4-carboxy-4-(19-carboxynonadecanoylamino)butanoyl]amino]ethoxy]ethoxy]acetyl]-[Arg17,Pro21,Pro27,Pro31,His35]-h-amylin (peptide)
peptide: K([AEEA-γGlu-C20 diacid])CNTATCATQRLANFLRHSSPNFGAIPSSTPVGSHTY-NH2
modifications: disulfide 2-7; N-terminus assumed
SMILES: CC[C@H](C)[C@H](NC(=O)[C@H](C)NC(=O)CNC(=O)[C@H](Cc1ccccc1)NC(=O)[C@H](CC(N)=O)NC(=O)[C@@H]1CCCN1C(=O)[C@H](CO)NC(=O)[C@H](CO)NC(=O)[C@H](Cc1c[nH]cn1)NC(=O)[C@H](CCCNC(=N)N)NC(=O)[C@H](CC(C)C)NC(=O)[C@H](Cc1ccccc1)NC(=O)[C@H](CC(N)=O)NC(=O)[C@H](C)NC(=O)[C@H](CC(C)C)NC(=O)[C@H](CCCNC(=N)N)NC(=O)[C@H](CCC(N)=O)NC(=O)[C@@H](NC(=O)[C@H](C)NC(=O)[C@@H]1CSSC[C@H](NC(=O)[C@@H](N)CCCCNC(=O)COCCOCCNC(=O)CC[C@H](NC(=O)CCCCCCCCCCCCCCCCCCC(=O)O)C(=O)O)C(=O)N[C@@H](CC(N)=O)C(=O)N[C@@H]([C@@H](C)O)C(=O)N[C@@H](C)C(=O)N[C@@H]([C@@H](C)O)C(=O)N1)[C@@H](C)O)C(=O)N1CCC[C@H]1C(=O)N[C@@H](CO)C(=O)N[C@@H](CO)C(=O)N[C@H](C(=O)N1CCC[C@H]1C(=O)N[C@H](C(=O)NCC(=O)N[C@@H](CO)C(=O)N[C@@H](Cc1c[nH]cn1)C(=O)N[C@H](C(=O)N[C@@H](Cc1ccc(O)cc1)C(N)=O)[C@@H](C)O)C(C)C)[C@@H](C)O
notes: Synthetic analogue; also called compound 57

IC50 [4]: 5.38 nM
B2: N^ε1-[2-[2-[2-[[(4S)-4-carboxy-4-(19-carboxynonadecanoylamino)butanoyl]amino]ethoxy]ethoxy]acetyl]-[Arg17,Pro21,Pro27,Pro28,Pro31]-h-amylin (peptide)
peptide: K([AEEA-γGlu-C20 diacid])CNTATCATQRLANFLRHSSPNFGAIPPSTPVGSNTY-NH2
modifications: disulfide 2-7
notes: Synthetic analogue; also called compound 53

IC50 [4]: 4.38 nM
B5: N^ε1-[2-[2-[2-[[(4S)-4-carboxy-4-(19-carboxynonadecanoylamino)butanoyl]amino]ethoxy]ethoxy]acetyl]-[Arg17,Pro21,Pro27,Pro29,Pro31]-h-amylin (peptide)
peptide: K([AEEA-γGlu-C20 diacid])CNTATCATQRLANFLRHSSPNFGAIPSPTPVGSNTY-NH2
modifications: disulfide 2-7; N-terminus assumed
SMILES: CC[C@H](C)[C@H](NC(=O)[C@H](C)NC(=O)CNC(=O)[C@H](Cc1ccccc1)NC(=O)[C@H](CC(N)=O)NC(=O)[C@@H]1CCCN1C(=O)[C@H](CO)NC(=O)[C@H](CO)NC(=O)[C@H](Cc1c[nH]cn1)NC(=O)[C@H](CCCNC(=N)N)NC(=O)[C@H](CC(C)C)NC(=O)[C@H](Cc1ccccc1)NC(=O)[C@H](CC(N)=O)NC(=O)[C@H](C)NC(=O)[C@H](CC(C)C)NC(=O)[C@H](CCCNC(=N)N)NC(=O)[C@H](CCC(N)=O)NC(=O)[C@@H](NC(=O)[C@H](C)NC(=O)[C@@H]1CSSC[C@H](NC(=O)[C@@H](N)CCCCNC(=O)COCCOCCNC(=O)CC[C@H](NC(=O)CCCCCCCCCCCCCCCCCCC(=O)O)C(=O)O)C(=O)N[C@@H](CC(N)=O)C(=O)N[C@@H]([C@@H](C)O)C(=O)N[C@@H](C)C(=O)N[C@@H]([C@@H](C)O)C(=O)N1)[C@@H](C)O)C(=O)N1CCC[C@H]1C(=O)N[C@@H](CO)C(=O)N1CCC[C@H]1C(=O)N[C@H](C(=O)N1CCC[C@H]1C(=O)N[C@H](C(=O)NCC(=O)N[C@@H](CO)C(=O)N[C@@H](CC(N)=O)C(=O)N[C@H](C(=O)N[C@@H](Cc1ccc(O)cc1)C(N)=O)[C@@H](C)O)C(C)C)[C@@H](C)O
notes: Synthetic analogue; also called compound 54
